{"source": "patent US12552866B2", "about": "“Internalizing binding molecules targeting receptors involved in cell proliferation or in cell differentiation” (LinXis B.V., priority 2019, dated 2026)", "key": {"hIGF2R-ECD": {"molecular_target": "T1, hIGF2R-ECD (Homo sapiens, UniProt P11717)", "T1 construct": "recombinant human extracellular domain of IGF2R (hIGF2R-ECD)", "assay": "Binding assay / titration ELISA on recombinant hIGF2R-ECD", "settings": "construct conjugated to Alexa Fluor 647, direct read out; KD+SEM, n=2; read-out: calculated affinity (KD)", "description": "The 15 unique hIGF2R binders (Example 1.1, FIG. 2) were produced and purified as described in examples 2 and 3. The apparent affinities were determined with binding assays on hIGF2R-ECD. Briefly, three-fold serial VHH dilutions, starting from 1 μM, were added onto hIGF2R-ECD coated plates. After 2 hours of incubation, plates were washed and bound VHH was detected using a VHH-specific IgG antibody, followed by an IRD800CW-conjugated IgG-specific antibody. […] VHH 13F11 was also produced with a C-terminal free cysteine and conjugated using maleimide chemistry to Alexa Fluor 647 (13F11-A647 in FIG. 8A, conjugation method as described in example 9.2). A titration ELISA (direct read out at 647 nm) with this construct was carried out on hIGF2R-ECD to determine whether the affinity was affected after site directed conjugation (FIG. 8B). The KD and Bmax were calculated in Graphpad (version 8.3), using one-site specific binding analysis (FIG. 8C).\nBased on their high affinity and binding to non-overlapping receptor epitopes, VHHs 13F11 and 13E8 were selected for the design of biparatopic and bivalent VHH constructs. Two VHHs were fused with a flexible linker, consisting of three Gly-Gly-Gly-Gly-Ser repeats (FIG. 8A). The sequences were codon optimized for expression in E. coli and obtained as synthesized DNA fragments from GeneArt. The DNA fragments encoding VHHs were cloned into a vector pET28-based vector introducing a C-terminal free cysteine for site-directed conjugation and His6 tag for IMAC purification (FIG. 8A). The constructs were produced and purified as described in example 3. The constructs were conjugated to Alexa Fluor 647 (conjugation method as described in example 9.2) and titration ELISAs on recombinant hIGF2R-ECD (as described in example 4.1) were performed to determine the KD and Bmax (calculated in Graphpad (version 8.3), using one-site specific binding analysis) (FIG. 8C).\nNext, 13F11-13E8 was genetically re-engineered to include an in vivo half-life extender in the form of an albumin binding domain (ABD) as described by Johansson et al (Structure, specificity, and mode of interaction for bacterial albumin-binding modules, J. Biol. Chem. 2002 (277): 8114-8120) and subsequently produced and purified as described in Example 3. Subsequently, 13F11-13E8-ABD was conjugated to IRDye800CW (F11E8-ABD-IRD800, conjugation method as described in example 9.2) and the binding affinities of the biparatopic VHH as well as the ABD unit was determined. […] The binding affinity (KD) of F11-E8-ABD-IRD800 to rat serum albumin (RSA) was 30 nM and to mouse serum albumin (MSA) and human serum albumin (HSA) the binding affinity was approximately 200 nM."}, "[1]": {"assay": "In vivo pharmacokinetics in healthy Sprague-Dawley rats (serum ELISA)", "design": "species or system rat", "settings": "rat, i.v., approximately 3 mg/kg; LOD approximately 20 nM", "description": "The in vivo pharmacokinetic properties of 13F11-13E8-ABD was compared to 13F11-13E8 without the ABD moiety in healthy Sprague-Dawley rats. In brief, rats were dosed intravenously with approximately 3 mg/kg body weight and blood samples were taken at different time points and the concentration of the VHH constructs were determined using an ELISA on immobilized hIGF2R-ECD."}, "[2]": {"system": "A549 cells (IGF2R positive)", "assay": "Internalization in A549 cells (acid wash, confocal)", "assay_type": "cell-based, human", "settings": "25 nM VHH conjugated to Alexa Fluor 647", "description": "(§1) To assess if monovalent 13F11 and biparatopic 13F11-13E8 are internalized in the hIGF2R expressing cells, A549 cells (FIG. 16A) and NIH 3T3 2.2 cells transiently transfected with hIGF2R (FIG. 16B) were incubated with 25 nM VHH conjugated to Alexa Fluor 647 (conjugation method as described in example 9.2). A Mouse anti-IGF2R mAb was included to detect IGF2R expression on the hIGF2R transfected cells NIH 3T3 2.2 (FIG. 16B, right column), the mAb was detected with a goat anti-mouse mAb conjugated to Alexa Fluor 555. Additionally, mock transfected NIH 3T3 2.2 cells were incubated with 13F11 and 13F11-13E8 (FIG. 16C). […]\n(§2) (FIG. 10D). […] The rate of internalization (endocytic rate constant, ke) of biparatopic constructs 13F11-13E8 and 13E8-13F11 was determined with a kinetic internalization assay on SCC-VII cells transfected with hIGF2R and rIGF2R. […] Subsequently, cells were washed with cold PBS and the non-internalized VHH construct (bound fraction) was separated from the internalized construct (internalized fraction) using an acid-wash, as described above, after which the fluorescence of both fractions were measured. […] Internalization was also observed in rIGF2R expressing SCC cells as a clear increase in fluorescence over time can be shown in FIG. 17 (ke around 0.7 min-1)."}, "[3]": {"system": "NIH 3T3 2.2 cells transiently transfected with hIGF2R", "assay": "Internalization in NIH 3T3 2.2 cells transiently transfected with hIGF2R", "assay_type": "cell-based, human", "settings": "25 nM VHH conjugated to Alexa Fluor 647", "description": "as §1, §2"}, "[4]": {"system": "mock transfected NIH 3T3 2.2 cells", "assay": "Internalization in mock transfected NIH 3T3 2.2 cells", "assay_type": "cell-based", "settings": "25 nM VHH conjugated to Alexa Fluor 647", "description": "as §1, §2"}, "[5]": {"system": "hIGF2R expressing SCC cells", "assay": "Kinetic internalization assay on hIGF2R expressing SCC cells", "assay_type": "cell-based, human", "settings": "10 nM IRD800CW conjugate, 37° C., up to 12 minutes", "description": "(§3) (FIG. 10D). […] The differences in internalization are possibly related to the differences in IGF2R expression levels on the target cells. […] Summarizing, biparatopic 13F11-13E8 clearly internalizes in cells expressing hIGF2R on the cell surface. The rate of internalization (endocytic rate constant, ke) of biparatopic constructs 13F11-13E8 and 13E8-13F11 was determined with a kinetic internalization assay on SCC-VII cells transfected with hIGF2R and rIGF2R. Briefly, 10 nM of IRD800CW conjugated 13F11-13E8 or 13E8-13F11 (conjugation method as described in example 9.2) was added to hIGF2R expressing SCC cells or rIGF2R expressing SCC cells and incubated at 37° C. for different time points up to 12 minutes. Internalization was then purposely halted by putting the cells on ice. Subsequently, cells were washed with cold PBS and the non-internalized VHH construct (bound fraction) was separated from the internalized construct (internalized fraction) using an acid-wash, as described above, after which the fluorescence of both fractions were measured. Both constructs internalize with similar endocytic rate constants (ke around 1.5 min-1) in the hIGF2R expressing SCC cells (FIG. 17). Internalization was also observed in rIGF2R expressing SCC cells as a clear increase in fluorescence over time can be shown in FIG. 17 (ke around 0.7 min-1)."}, "[6]": {"system": "rIGF2R expressing SCC cells", "assay": "Kinetic internalization assay on rIGF2R expressing SCC cells", "assay_type": "cell-based, rat", "settings": "10 nM IRD800CW conjugate, 37° C., up to 12 minutes", "description": "as §3"}, "activated HSCs LX-2": {"system": "activated HSCs LX-2", "assay": "Internalization in living LX-2 cells with pHrodo red conjugates", "assay_type": "cell-based, human", "settings": "50 nM pHrodo-red conjugate", "excerpt": "Internalization of monovalent 13F11 and biparatopics 13F11-13E8 and 13E8-13F11 in living activated HSCs LX-2 was visualized using the pHrodo pH dependent probe (ThermoFisher Scientific). The pH probe becomes more fluorescent as the pH of the surroundings decreases accordingly. Endosomes and lysosomes have a pH maintained at 6.5 and 4.5, respectively, compared to cytoplasmic pH of 7.0, and thus internalization of a VHH-pHrodo construct can be visualized when it internalizes via the endosomal pathway. LX-2 cells were incubated at 37° C. for 2 hours with 50 nM of pHrodo-red conjugated 13F11, 13F11-13E8 and 13E8-13F11 (conjugation method as described in example 9.2). Images were taken at 5 min. intervals using a wide-field PEXScope microscope (Nikon) with a mCherry filter and 40× oil objective. […] Additionally, both internalized 13F11-13E8 and 13E8-13F11 accumulate into perinuclear compartments (endosomes/lysosomes)."}}, "data": [{"molecule": "13F11-13E8: biparatopic anti-IGF2R VHH construct, 13F11 and 13E8 fused with (Gly-Gly-Gly-Gly-Ser)3 linker (protein, left off: small tags and cut ends, biparatopic anti-IGF2R VHH construct, 13F11 and 13E8 fused with (Gly-Gly-Gly-Gly-Ser)3 linker) EVQLVESGGRLVQPGDSLRLSCAASGRTFSDNAMGWFRQAPGKERRFVAGISWAGGSTYYSDSVKGRFTISRDNAKNTVYLQMNSLKPEDTAVYYCAAGLRAWVQRMPKDYNYWGQGTQVTVSSGGGGSGGGGSGGGGSEVQLVESGGGLVQAGGSLRLSCAASRSISPMGWYRQAPGKQRELVAIMPSSGPPIYADSVQGRFTISRDNAKNTVYLQMNSLKPEDTAVYYCNVGGGYWGQGTQVTVSS", "values": [{"measurement": "Kd", "setting": "hIGF2R-ECD", "result": "2.5 ± 1.87", "unit": "nM"}, {"measurement": "clearance from circulation", "setting": "[1]", "result": "could not be detected anymore within two hours after injection"}, {"measurement": "internalization in A549 cells", "setting": "[2]", "result": "clearly internalized"}, {"measurement": "internalization in hIGF2R transfected NIH 3T3 2.2 cells", "setting": "[3]", "result": "did internalise"}, {"measurement": "internalization in mock transfected NIH 3T3 2.2 cells", "setting": "[4]", "result": "did not internalize"}, {"measurement": "endocytic rate constant (ke)", "setting": "[5]", "result": "around 1.5 min-1"}, {"measurement": "endocytic rate constant (ke)", "setting": "[6]", "result": "around 0.7 min-1"}, {"measurement": "intracellular fluorescence compared to the monovalent construct", "setting": "activated HSCs LX-2; 37° C., from 15 min. onwards", "result": "more pronounced increase in intracellular fluorescence"}, {"measurement": "rate of internalization compared to 13E8-13F11", "setting": "activated HSCs LX-2; 40-min. time period", "result": "higher rate of internalization"}]}]}
